How the values were obtained:
Experiment in all cases: cleavage_in_vitro
[1] = target: T1, BamHI (Bacillus amyloliquefaciens) (UniProt P23940); conditions: NEB4, 37 C, Mg2+; FI NEB1-3: 4, 4, 32
T1 sequence: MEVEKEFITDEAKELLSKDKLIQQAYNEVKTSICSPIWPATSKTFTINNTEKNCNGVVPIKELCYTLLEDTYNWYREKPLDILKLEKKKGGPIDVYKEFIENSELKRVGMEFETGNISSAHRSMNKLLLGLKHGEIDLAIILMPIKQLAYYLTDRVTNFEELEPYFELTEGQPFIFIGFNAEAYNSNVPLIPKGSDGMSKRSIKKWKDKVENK

[2] = test system: T2, BsmBI-HF N185Y/R232A (Bacillus stearothermophilus); conditions: NEB4, 55 C, Mg2+; listed as BsmBI; FI NEB1-3: 2, >=500, >=64
T2 sequence: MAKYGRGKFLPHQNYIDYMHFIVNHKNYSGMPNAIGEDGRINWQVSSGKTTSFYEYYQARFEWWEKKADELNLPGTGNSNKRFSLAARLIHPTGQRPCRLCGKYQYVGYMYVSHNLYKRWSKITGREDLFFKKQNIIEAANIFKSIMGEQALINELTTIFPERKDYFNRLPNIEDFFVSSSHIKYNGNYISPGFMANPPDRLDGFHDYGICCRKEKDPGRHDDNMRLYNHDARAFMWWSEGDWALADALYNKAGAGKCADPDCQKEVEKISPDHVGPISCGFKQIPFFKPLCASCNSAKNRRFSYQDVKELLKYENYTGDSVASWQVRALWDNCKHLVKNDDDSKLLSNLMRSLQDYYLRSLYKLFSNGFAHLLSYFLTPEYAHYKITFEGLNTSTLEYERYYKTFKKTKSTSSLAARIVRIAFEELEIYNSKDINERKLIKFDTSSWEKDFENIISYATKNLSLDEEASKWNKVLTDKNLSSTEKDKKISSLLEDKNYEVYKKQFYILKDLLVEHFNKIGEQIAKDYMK

[3] = test system: BstXI (Bacillus stearothermophilus); conditions: NEB4, 55 C, Mg2+; FI NEB1-3: 2, 2, 2
[4] = target: EcoRI-HF K62E (Escherichia coli RY13) (UniProt P00642); conditions: NEB4, 37 C, Mg2+; FI NEB1-3: 2000, 4000, 250
[5] = target: T3, HpaI (Haemophilus parainfluenzae) (UniProt P29537); conditions: NEB4, 37 C, Mg2+; FI NEB1-3: 32, 1, 2
T3 sequence: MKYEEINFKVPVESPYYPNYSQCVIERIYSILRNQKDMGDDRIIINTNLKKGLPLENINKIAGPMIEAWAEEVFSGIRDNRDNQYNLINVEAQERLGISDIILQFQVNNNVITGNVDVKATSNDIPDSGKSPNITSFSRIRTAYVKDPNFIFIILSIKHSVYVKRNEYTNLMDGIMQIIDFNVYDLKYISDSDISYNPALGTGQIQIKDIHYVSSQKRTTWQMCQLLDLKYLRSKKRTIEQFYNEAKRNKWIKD

[6] = target: T4, PstI (Providencia stuartii 164) (UniProt P00640); conditions: NEB4, 37 C, Mg2+; FI NEB1-3: 64, 32, 120
T4 sequence: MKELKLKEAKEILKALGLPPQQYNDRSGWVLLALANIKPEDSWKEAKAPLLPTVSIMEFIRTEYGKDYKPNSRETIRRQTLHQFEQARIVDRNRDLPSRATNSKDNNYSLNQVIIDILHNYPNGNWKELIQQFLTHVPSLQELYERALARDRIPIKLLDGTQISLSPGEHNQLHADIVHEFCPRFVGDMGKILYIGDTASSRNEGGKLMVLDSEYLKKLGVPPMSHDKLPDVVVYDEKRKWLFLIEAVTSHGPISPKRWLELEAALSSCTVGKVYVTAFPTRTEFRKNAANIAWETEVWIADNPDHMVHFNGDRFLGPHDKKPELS

[7] = test system: T5, SapI (Saccharopolyspora sp.); conditions: NEB4, 37 C, Mg2+; FI NEB1-3: 16, 64, 32
T5 sequence: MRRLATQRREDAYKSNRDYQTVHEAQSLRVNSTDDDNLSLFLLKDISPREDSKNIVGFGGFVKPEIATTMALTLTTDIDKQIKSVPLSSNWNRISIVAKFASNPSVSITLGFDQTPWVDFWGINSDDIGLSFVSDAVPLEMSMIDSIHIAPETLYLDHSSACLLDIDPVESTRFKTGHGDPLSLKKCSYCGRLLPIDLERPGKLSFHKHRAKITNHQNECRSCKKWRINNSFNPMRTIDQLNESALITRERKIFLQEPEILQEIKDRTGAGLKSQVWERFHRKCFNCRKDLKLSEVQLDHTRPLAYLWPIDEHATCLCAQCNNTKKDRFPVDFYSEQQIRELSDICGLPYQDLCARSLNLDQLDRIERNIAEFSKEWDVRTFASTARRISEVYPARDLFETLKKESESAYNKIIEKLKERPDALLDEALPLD

[8] = test system: T6, SbfI-HF K251A (Streptomyces species Bf-61); conditions: NEB4, 37 C, Mg2+; FI NEB1-3: 1000, 120, 8
T6 sequence: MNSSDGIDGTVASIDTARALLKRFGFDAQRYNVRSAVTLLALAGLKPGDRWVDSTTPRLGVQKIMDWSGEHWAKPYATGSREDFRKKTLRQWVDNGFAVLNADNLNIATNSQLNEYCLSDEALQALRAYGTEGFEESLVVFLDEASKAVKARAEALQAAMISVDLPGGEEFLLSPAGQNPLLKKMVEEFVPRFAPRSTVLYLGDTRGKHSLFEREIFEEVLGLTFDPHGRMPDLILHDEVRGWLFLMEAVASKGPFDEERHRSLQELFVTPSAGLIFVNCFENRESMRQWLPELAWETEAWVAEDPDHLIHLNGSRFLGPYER

[9] = test system: T7, SspI-HF Y98F (Sphaerotilus species); conditions: NEB4, 37 C, Mg2+; FI NEB1-3: >=4000, 120, >=32
T7 sequence: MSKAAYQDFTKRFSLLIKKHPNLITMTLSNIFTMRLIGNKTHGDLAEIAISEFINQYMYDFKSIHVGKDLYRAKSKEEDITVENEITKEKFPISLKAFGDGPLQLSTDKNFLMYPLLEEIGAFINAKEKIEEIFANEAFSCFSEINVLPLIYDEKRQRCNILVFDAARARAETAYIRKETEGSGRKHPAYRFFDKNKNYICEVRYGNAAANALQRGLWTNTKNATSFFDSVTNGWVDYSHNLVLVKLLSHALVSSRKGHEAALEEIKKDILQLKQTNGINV

lambda phage DNA
activity (fidelity index) [1]: 4 | activity (fidelity index) [2]: > 500 | activity (fidelity index) [3]: 4 | activity (fidelity index) [4]: 16000 | activity (fidelity index) [5]: 16 | activity (fidelity index) [6]: 8 | activity (fidelity index) [7]: 16 | activity (fidelity index) [8]: 250 | activity (fidelity index) [9]: 500
